Measurements: patent US10947270B2, “Targeted prodrug cytosine deaminase fusion carrier and application thereof” (National Yang-Ming University, priority 2015, dated 2021)

Columns and labels:
[1] = Enzyme stability of EcCD series fusion protein and yCD protein in FBS or transferrin; type: in vitro ADME; conditions: 37° C.; for enzyme activity: 24 hours
Experimental: FIGS. 12A-12C show an enzyme stability analysis of EcCD series fusion protein and yCD protein.
Previous literature reports indicate that the thermostability of E. coli cytosine deaminase (EcCD) is better than that of yCD. […] In order to simulate the environment of the protein in the cell killing test, the EcCD series fusion protein and the yCD protein are cultured in 10% FBS at 37° C. for 0, 1, 2, 4, 24 hours, and then determine the enzyme kinetics. It can be observed from the results that the yCD protein is cultured in 10% FBS for 1 hour, the enzyme activity is reduced to 80%, and when cultured for 2 and 4 hours, the enzyme activity is reduced to 50% and 20%, respectively, and the enzyme activity is lost after culturing for 24 hours, while the EcCD series fusion protein is similar to the culture in 100% FBS, which can maintain the original enzyme activity (see FIG. 12B). The literature points out that the metal ion of the enzyme catalytic center will affect the stability of the enzyme. In the yCD protein involved in the enzyme reaction, the metal ion of the enzyme catalytic center has a considerable relationship with the enzyme activity. The protein associated with transporting metal ions in serum is transferrin. It is speculated that transferrin may be related to the enzyme activity of yCD protein. Therefore, the EcCD series fusion protein and yCD protein are co-cultured respectively with transferrin at a concentration of 3 mg/ml (normal concentration 2.1-3.4 mg/mL) at 37° C. for 0, 1, 2, 4, 24 hours, then determine the enzyme kinetics (see FIG. 12C), it is known from the results that the longer the yCD protein is cultured in the transferrin, the lower the enzyme activity will be. […] This trend is similar to the culture at 10% in FBS. It is speculated that the factor of reducing the activity of yCD protein in FBS has a great relationship with transferrin. The stability of yCD protein in FBS is poor, and the stability of EcCD series fusion protein is better, so the industrial use of EcCD series fusion protein in both sexual and therapeutic applications is better than that of yCD protein, and it is also confirmed that the mutation of RGD4C peptide and D314A will not affect the enzyme stability of EcCD protein.

[2] = Enzyme kinetic analysis of EcCD series fusion proteins, substrate cytosine; type: biochemical
Text: FIGS. 11A-11D show the activity and kinetics analysis of EcCD series fusion protein enzymes, and the EcCD series proteins are combined with 5-FC at different concentrations for reaction. Respectively calculate the 5-FU formation reaction rate shown in FIG. 11A, 5-FC consumption reaction rate shown in FIG. 10B, uracil formation reaction rate shown in FIG. 10C and cytosine consumption reaction rate shown in FIG. 10D, substitute Michaelis-Menten formula, and calculate the base mass (Kcat) and Km value catalyzed by each mol enzyme in unit time. […]

[3] = Relative substrate selectivity of cytosine deaminase enzyme for 5-FC and cytosine (formula 1); type: biochemical; conditions: relative substrate selectivity to 5-FC
Text: Evaluation of the relative substrate selectivity of cytosine deaminase enzyme for 5-FC and Cytosine can be expressed by the following formula 1,
The higher the value, the higher the selectivity of the enzyme to the 5-FC substrate.

integrin αvβ3 receptor = integrin αvβ3 receptor (Homo sapiens, UniProt P05106+P06756); assay: ELISA binding ability of DTPA modified and In-labeled yCD series protein to integrin αvβ3 receptor; conditions: before and after modification, marking, purification
Text: The curve and receptor binding ability parameters (see FIG. 19 and Table 14) are fitted by the binding ability of DTPA-modified protein and integrin αvβ3 receptor through the One site-Specific binding formula in the Graph prism program.
Before the protein is labeled by radioisotope, its enzyme function must be determined, and based on the original enzyme function, it should be examined whether it will be affected during the radioactive marking process. The curve and enzyme kinetic parameters of protein are fitted by the Michaelis-Menten formula in the Graph prism program. […] Whether the yCD and RGD4C-yCD protein detected by the same method will be affected under the conditions of DTPA modification, marking and purification. […] After the completion of the radioactive metal mark, it is necessary to add EDTA of 10-fold protein Moire number and react at room temperature for 1 hour to compete for the radioactive metal isotope indium which is not chelated on DTPA. The EDTA in this step also has the chance to chelate the metal zinc ion of the enzyme catalytic center, the enzyme activity is impaired, so it is necessary to analyze the enzyme activity of In-DTPA-yCD and In-RGD4C-yCD protein after competition with EDTA. […]

[4] = test system: HUVEC, U87MG and MCF-7 cells; assay: Specific binding assay of yCD series recombinant protein and cell, statement for the three cells; type: cell-based, human
Experimental: FIG. 5A, FIG. 5B, and FIG. 5C are respectively represented HUVEC cells, U87MG cells, MCF-7 cells seeded in 96-well plates for 24 hours, and then RGD4C-yCD, yCD, RGD4C-yCD/UPRT and yCD/UPRT with different concentrations are added for cells binding assay. After reacted with anti-His-HRP antibody and TMB substrate, ELISA reader (OD450 nm) is used to detect the amount of recombinant protein bound to the cells, and the binding curve is drawn. The nonlinear curve of the prism software is used to make a diagram and calculate the dissociation constant (Kd).
The anti-His6-Tag-HRP antibody and TMB show the color reagent to detect the amount of recombinant protein bound to the cell, then the dissociation constant Kd value of the recombinant protein and the integrin αvβ3 receptor is calculated and a binding curve is drawn. […] The cell binding ability of RGD4C-yCD for HUVEC and U87MG are about 7.7 folds and 6.8 folds higher than MCF-7 respectively. The cell binding ability of RGD4C-yCD/UPRT for HUVEC and U87MG are about 6.9 folds and 5.8 folds higher than MCF-7 respectively. […] It is shown that RGD4C-yCD and RGD4C-yCD/UPRT are specially bound with integrin αvβ3 through RGD4C sequence.

Sequence of integrin αvβ3 receptor (P06756 31-889 limits assumed): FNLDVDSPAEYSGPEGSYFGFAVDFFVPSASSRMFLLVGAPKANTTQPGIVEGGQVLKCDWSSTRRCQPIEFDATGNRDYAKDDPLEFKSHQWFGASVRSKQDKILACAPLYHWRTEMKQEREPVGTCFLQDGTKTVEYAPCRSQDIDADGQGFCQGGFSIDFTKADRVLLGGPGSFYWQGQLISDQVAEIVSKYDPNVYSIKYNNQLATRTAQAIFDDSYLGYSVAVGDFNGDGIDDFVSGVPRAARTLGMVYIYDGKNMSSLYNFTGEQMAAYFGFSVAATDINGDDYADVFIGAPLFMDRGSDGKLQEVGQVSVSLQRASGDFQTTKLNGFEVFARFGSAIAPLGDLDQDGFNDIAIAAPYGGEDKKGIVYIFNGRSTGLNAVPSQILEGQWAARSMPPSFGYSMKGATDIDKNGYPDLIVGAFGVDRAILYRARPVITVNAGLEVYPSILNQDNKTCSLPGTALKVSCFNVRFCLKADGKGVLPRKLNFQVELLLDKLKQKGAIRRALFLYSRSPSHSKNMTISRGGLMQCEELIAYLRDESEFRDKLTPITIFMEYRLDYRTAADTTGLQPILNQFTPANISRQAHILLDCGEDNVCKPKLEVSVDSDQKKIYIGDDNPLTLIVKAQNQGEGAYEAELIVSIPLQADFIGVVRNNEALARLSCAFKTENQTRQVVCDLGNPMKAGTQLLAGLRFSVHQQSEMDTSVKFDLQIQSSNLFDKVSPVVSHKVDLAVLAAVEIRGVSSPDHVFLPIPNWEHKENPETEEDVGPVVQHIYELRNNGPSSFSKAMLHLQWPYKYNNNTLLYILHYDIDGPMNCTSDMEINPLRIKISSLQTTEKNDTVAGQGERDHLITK
Sequence of integrin αvβ3 receptor (P06756 891-1048 partner limits assumed): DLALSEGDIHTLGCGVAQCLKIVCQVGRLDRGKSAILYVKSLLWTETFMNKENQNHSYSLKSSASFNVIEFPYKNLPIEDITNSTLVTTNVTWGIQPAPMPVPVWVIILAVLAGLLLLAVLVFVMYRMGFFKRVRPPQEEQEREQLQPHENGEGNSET
Sequence of integrin αvβ3 receptor (P05106 27-788): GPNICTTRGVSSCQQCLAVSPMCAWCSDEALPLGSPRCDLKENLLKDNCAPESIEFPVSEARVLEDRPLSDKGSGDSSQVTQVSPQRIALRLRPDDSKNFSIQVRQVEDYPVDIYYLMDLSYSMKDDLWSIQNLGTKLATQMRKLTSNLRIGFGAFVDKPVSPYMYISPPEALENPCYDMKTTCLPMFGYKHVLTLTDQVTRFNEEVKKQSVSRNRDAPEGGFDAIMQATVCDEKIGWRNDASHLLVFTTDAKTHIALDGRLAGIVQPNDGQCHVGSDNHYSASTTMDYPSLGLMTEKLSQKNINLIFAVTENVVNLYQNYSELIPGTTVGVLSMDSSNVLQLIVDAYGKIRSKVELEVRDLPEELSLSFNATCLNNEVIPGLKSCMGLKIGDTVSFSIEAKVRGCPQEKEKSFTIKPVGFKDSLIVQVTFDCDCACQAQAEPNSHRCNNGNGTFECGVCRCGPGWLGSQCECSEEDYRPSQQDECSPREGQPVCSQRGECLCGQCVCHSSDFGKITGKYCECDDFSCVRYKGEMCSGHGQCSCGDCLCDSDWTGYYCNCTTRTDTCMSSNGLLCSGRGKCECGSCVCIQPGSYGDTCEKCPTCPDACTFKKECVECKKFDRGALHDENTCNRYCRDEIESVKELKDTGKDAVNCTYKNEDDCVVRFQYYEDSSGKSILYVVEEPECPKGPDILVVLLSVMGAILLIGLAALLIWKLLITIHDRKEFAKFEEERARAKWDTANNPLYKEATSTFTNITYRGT

B1: yCD: yeast cytosine deaminase (yCD) (SEQ ID NO: 1), recombinant protein without target molecule (protein)
chain: MVVTGGMASKWDQKGMDIAYEEAALGYKEGGVPIGGCLINNKDGSVLGRGHNMRFQKGSATLHGEISTLENCGRLEGKVYKDTTLYTTLSPCDMCTGAIIMYGIPRCVVGENVNFKSKGEKYLQTRGHEVVVVDDERCKKIMKQFIDERPQDWFEDIGELEHHHHHH
modifications: yCD
**Q.** With B1 as the molecule, how does the “enzyme activity” value ([1]; 3 mg/ml transferrin) read?
**A.** Its value is “close to the loss of activity”.

**Q.** And the “enzyme activity (Kcat/Km relative to 0 hours)” value ([1]; 10% FBS, 1 hour)?
**A.** Its value is 80%.

**Q.** And the “enzyme activity (Kcat/Km relative to 0 hours)” value ([1]; 10% FBS, 2 hours)?
**A.** The value was 50%.

**Q.** And the “enzyme activity (Kcat/Km relative to 0 hours)” value ([1]; 10% FBS, 4 hours)?
**A.** The value was 20%.

**Q.** And the “enzyme activity” value ([1]; 10% FBS)?
**A.** Its value is “lost”.

**Q.** What about the Kcat ([2]; cytosine consumption) of the same molecule?
**A.** The Kcat was 55.6 ± 8.5 s⁻¹.

**Q.** And the Km ([2]; cytosine consumption)?
**A.** Its Km is 4.7 ± 1.3 mM.

**Q.** What about the Kcat ([2]; uracil generation) of the same molecule?
**A.** The Kcat was 54.6 ± 1.3 s⁻¹.

**Q.** What about the Km ([2]; uracil generation) of the same molecule?
**A.** Its Km is 3.9 ± 0.2 mM.

**Q.** And the “[Kcat/Km(5-FC)]/{[Kcat/Km(cytosine)] + [Kcat/Km(5-FC)]}” value [3]?
**A.** The value was 0.771.

**Q.** What about the “binding with integrin αvβ3 receptor” value (integrin αvβ3 receptor) of the same molecule?
**A.** The value was “can not be bound”.

**Q.** What about the “binding to the three cells” value [4] of the same molecule?
**A.** Its value is “weak binding”.
